Assay results: the supplement of paper PMC10126150
± gives the standard deviation of the averaged measurements.

System: ATP
Test: switch fluorescence ratio, 500 uM ATP over buffer (Cy3 cluster intensity, sum of 5 cycles each) (fold (ratio)); higher = stronger signal-on switching upon ATP binding; sequences stand for … in TCGTCGGCAGCGTCAGATGTGTATAAGAGACAGTTTTTTTTTTTTTTTTTTTTTTTTT…TC
Conditions: aptamer strand: ATP DNA aptamer (quencher-CACCTGGGGGAGTATTGCGGAGGAAGG + anchor), 100 nM annealed; ATP concentration: 500 uM
In short: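 Imaging in selection buffer was followed by imaging after 15 min with 500 uM ATP at 22 °C, for Cy3-labelled switching-strand clusters annealed to 100 nM quencher-labelled ATP aptamer on a modified Illumina MiSeq flow-cell. Five of these buffer/ATP cycles ran, separated by NaOH stripping and re-annealing. The fluorescence ratio per cluster is summed target-cycle over summed buffer-cycle Cy3 intensity, averaged per switch-domain sequence; clusters outside 100-1000 RFU were removed.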
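Note: ATP exposure 15 min at 22 °C before imaging.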

Sequence	switch fluorescence ratio
TTTCGTTCTC	1.008 ± 0.0045
TTTCGTTGAA	0.9964 ± 0.0069
TTTCTAACGT	1.001 ± 0.0026
TTTCTAAGGG	1.07 ± 0.061
TTTCTAAGTC	0.9559 ± 0.006
TTTCTAATTT	1.02 ± 0.015
TTTCTACGTA	1.13 ± 0.14
TTTCTAGACA	1.02 ± 0.021
TTTCTAGTCT	0.935 ± 0.0085
TTTCTATGGA	1.0135 ± 0.0006
TTTCTATTTT	1.02 ± 0.066
TTTCTCAGAG	0.995 ± 0.016
TTTCTCCGGT	1.53 ± 0.39
TTTCTCGGCA	1.44 ± 0.42
TTTCTCTGAG	1.04 ± 0.033
TTTCTGACGT	1.09 ± 0.057
TTTCTGGGTC	1.02 ± 0.068
TTTCTGTAAG	1.01 ± 0.036
TTTCTGTGGA	0.9892 ± 0.0091
TTTCTTAGAG	0.992 ± 0.038
TTTCTTAGGT	1.03 ± 0.014
TTTCTTAGTT	1.04 ± 0.017

Sequence	switch fluorescence ratio
TTTCTTCGCT	1.01 ± 0.046
TTTCTTCTCA	1.01 ± 0.024
TTTCTTTATC	0.974 ± 0.017
TTTCTTTCTC	1.02 ± 0.026
TTTCTTTTTT	1 ± 0.024
TTTGAAAACG	1.02 ± 0.033
TTTGAAAGAA	0.9779 ± 0.0054
TTTGAAAGTT	1.01 ± 0.015
TTTGAAATAC	2.2 ± 0.025
TTTGAACGCT	1.06 ± 0.015
TTTGAAGACA	0.991 ± 0.028
TTTGAAGACT	0.98 ± 0.028
TTTGAAGGAT	1.29 ± 0.35
TTTGAAGTCA	1 ± 0.022
TTTGAATTCG	1.009 ± 0.0022
TTTGAATTTT	0.998 ± 0.024
TTTGACAGGA	1.06 ± 0.057
TTTGACATGT	0.975 ± 0.038
TTTGACGCGC	1.16 ± 0.13
TTTGACGGGA	1.01 ± 0.012
TTTGACGGTA	1.09 ± 0.016
TTTGACTAGG	1.01 ± 0.038

Sequence	switch fluorescence ratio
TTTGACTTCA	1.03 ± 0.018
TTTGACTTTT	0.994 ± 0.028
TTTGAGAAGC	0.992 ± 0.026
TTTGAGGAAG	1.01 ± 0.022
TTTGAGGACT	0.992 ± 0.025
TTTGAGGCCA	1.04 ± 0.061
TTTGAGGGGG	1.01 ± 0.066
TTTGAGGTGA	1.04 ± 0.07
TTTGAGTCGG	0.957 ± 0.0034
TTTGAGTTGT	0.962 ± 0.035
TTTGATAGT	1 ± 0.021
TTTGATATTT	1.11 ± 0.22
TTTGATCAAG	1.021 ± 0.008
TTTGATCGGA	0.965 ± 0.062
TTTGATCTAT	0.989 ± 0.028
TTTGATCTCG	1.0054 ± 0.00071
TTTGATCTGC	0.961 ± 0.031
TTTGATGATA	0.981 ± 0.014
TTTGATGCAT	1.03 ± 0.026
TTTGATGCGT	1.018 ± 0.0095
TTTGATTTGC	0.961 ± 0.042
TTTGATTTTC	0.976 ± 0.049

Sequence	switch fluorescence ratio
TTTGCAAGGG	1.81 ± 1.2
TTTGCATCTA	1.0306 ± 0.00072
TTTGCCAGTT	0.9847 ± 0.0019
TTTGCCCCCT	1.04 ± 0.051
TTTGCCCTGG	1.1 ± 0.08
TTTGCCGGG	1.02 ± 0.0019
TTTGCCGGGA	1.01 ± 0.019
TTTGCCGGGT	0.998 ± 0.046
TTTGCCTTTT	1 ± 0.042
TTTGCGAGGG	1.01 ± 0.018
TTTGCGCTTT	1.1 ± 0.084
TTTGCGGAAA	1.01 ± 0.023
TTTGCGGTCA	1.021 ± 0.0091
TTTGCGTTCA	1.02 ± 0.078
TTTGCTACTG	1.052 ± 0.0096
TTTGCTCGGG	1.003 ± 0.002
TTTGCTGCGG	1.03 ± 0.041
TTTGCTGGCG	0.935 ± 0.024
TTTGCTTGGT	0.994 ± 0.03
